Patent US20130336973A1
Values joined by “and” are separate entries in the source; they are usually repeats but may differ in a detail not shown here. Identical values can stand only once.

Legend:
[1] = target: FcγRIIB (CD32b), Y163 allotype (UniProt P31994); assay: SPR
[2] = target: FcγRIIIA (CD16a), F158 allotype (UniProt P08637); assay: SPR
[3] = target: neonatal Fc receptor (FcRn) (UniProt P55899); assay: SPR, Ab captured on goat anti-human IgG, FcRn flowed, pH 6.0
neonatal Fc receptor (FcRn), sequence (P55899 24-297 limits assumed, chain 1 of 2): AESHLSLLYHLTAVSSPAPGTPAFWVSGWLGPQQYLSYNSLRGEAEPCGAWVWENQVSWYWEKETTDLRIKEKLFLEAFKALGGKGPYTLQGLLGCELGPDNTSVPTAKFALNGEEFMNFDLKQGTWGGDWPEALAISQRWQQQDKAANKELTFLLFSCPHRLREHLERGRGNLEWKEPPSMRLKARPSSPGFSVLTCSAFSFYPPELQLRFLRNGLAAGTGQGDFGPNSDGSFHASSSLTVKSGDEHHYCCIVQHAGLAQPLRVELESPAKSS
neonatal Fc receptor (FcRn), sequence (P61769 21-119 limits assumed, chain 2 of 2, further chain): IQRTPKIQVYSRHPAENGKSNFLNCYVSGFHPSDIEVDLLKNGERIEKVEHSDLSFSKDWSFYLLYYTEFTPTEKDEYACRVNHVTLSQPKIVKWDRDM

FcγRIIB (CD32b), Y163 allotype, sequence (P31994 43-217 limits assumed): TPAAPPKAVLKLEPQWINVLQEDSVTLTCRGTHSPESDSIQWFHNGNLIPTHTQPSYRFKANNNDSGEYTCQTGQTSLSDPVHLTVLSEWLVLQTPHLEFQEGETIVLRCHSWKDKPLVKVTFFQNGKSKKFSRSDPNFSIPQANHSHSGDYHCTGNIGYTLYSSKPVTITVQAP
FcγRIIIA (CD16a), F158 allotype, sequence (P08637 17-208 limits assumed): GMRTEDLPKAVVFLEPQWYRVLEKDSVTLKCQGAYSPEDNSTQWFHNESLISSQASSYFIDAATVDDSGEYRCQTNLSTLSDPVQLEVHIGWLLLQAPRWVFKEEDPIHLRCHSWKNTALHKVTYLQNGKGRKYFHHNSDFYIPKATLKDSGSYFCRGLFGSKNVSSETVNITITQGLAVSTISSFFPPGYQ

Substance | Kd [1] [µM] | Kd [2] | Kd [3] [µM]
D399C_F405A_Y407V / T366L_K392C_T394W (antibody) | 1.2 | 0.51 µM | 
F405A_Y407V / T366L_K392M_T394W (antibody) |  | 0.46 µM | 
F405A_Y407V / T366L_T394W (antibody) |  | 0.48 µM | 
Herceptin WT (antibody) | 1.7 |  | 3.7
L351Y_F405A_Y407V / T366L_K392M_T394W (antibody) |  | 0.42 µM | 5
Q347R_T350V_L351Y_S400E_F405A_Y407V / T350V_K360E_T366L_N390R_K392M_T394W (antibody) | 0.92 | 0.42 µM | 
T350V_F405A_Y407V / T350V_T366L_K392M_T394W (antibody) | 1 |  | 
T350V_L351Y_F405A_Y407V / T350V_T366L_K392L_T394W (antibody) | 0.99 |  | 3.9
T350V_L351Y_F405A_Y407V / T350V_T366L_K392M_T394W (antibody) | 1.2 | 0.46 µM | 4.3
T350V_L351Y_S400E_F405A_Y407V / T350V_L351Y_T366L_N390R_K392M_T394W (antibody) | 0.71 |  | 
T350V_L351Y_S400E_F405A_Y407V / T350V_T366L_N390R_K392F_T394W (antibody) | 0.71 |  | 
T350V_L351Y_S400E_F405A_Y407V / T350V_T366L_N390R_K392L_T394W (antibody) | 0.91 |  | 
T350V_L351Y_S400E_F405A_Y407V / T350V_T366L_N390R_K392M_T394W (antibody) | 0.9 | 0.45 µM and 0.42 µM | 5
T350V_L351Y_S400E_F405S_Y407V / T350V_T366L_N390R_K392M_T394W (antibody) | 0.83 | 0.42 µM | 
T350V_L351Y_S400E_F405T_Y407V / T350V_T366L_N390R_K392M_T394W (antibody) | 0.67 |  | 
T350V_L351Y_S400R_F405A_Y407V / T350V_T366L_K392M_T394W (antibody) | 0.89 |  | 
T350V_L351Y_S400R_F405A_Y407V / T350V_T366L_N390D_K392M_T394W (antibody) | 0.94 |  | 
T350V_L351Y_S400R_F405A_Y407V / T350V_T366L_N390E_K392M_T394W (antibody) | 0.89 | 0.42 µM | 
T350V_S400E_F405A_Y407V / T350V_T366L_N390R_K392M_T394W (antibody) | 1 | 0.45 µM | 
Y349C_D399C_F405A_Y407V / S354C_T366L_K392C_T394W (antibody) |  | 0.63 µM | 
Y349C_F405A_Y407V / S354C_T366L_T394W (antibody) | 1.2 | 0.58 µM | 
Y349C_T350V_F405A_Y407V / T350V_S354C_T366L_K392M_T394W (antibody) |  | 0.46 µM | 4.1
Y349C_T350V_L351Y_S400E_F405A_Y407V / T350V_S354C_T366L_N390R_K392M_T394W (antibody) | 0.95 | 0.42 µM | 
